Test results reported in patent publication US20230322924A1 (Janssen / Centocor, published 2023).

Tests used:
[1] = molecular target: T1, cynomolgus CD3e/d complex on cells transiently transfected with pcDNA3.1-CD3e/d-cyn-mix (cynomolgus, UniProt Q95LI5 22-198; Q95LI8 22-171); experiment: CELISA, hybridoma supernatant
T1 construct: Tagged screening constructs
Protocol: (§1) Hybridoma supernatants from fusions BLW (with magnetic bead depletion of lymphocytes) and BLX (without magnetic bead depletion of lymphocytes) were analyzed a) by a cell-based ELISA (CELISA) on cells transiently transfected with human and cynomolgus cDNA cloned into screening vectors: pOPT-CD3e-hum-epsilon-TCE.OMT+pOPT-CD3d-hum-delta.OMT, 1:1 (pOPT-CD3e/d-hum-mix) and pcDNA3.1-CD3e-cyn-[…]+pcDNA3.1-CD3d-cyn-delta, 1:1 (pcDNA3.1-CD3e/d-cyn-mix). For CELISA negative control, non-transfected mammalian cells were incubated with hybridoma supernatants and detected with the secondary Bethyl antibody. For a CELISA transfection control, mammalian cells, transfected with the constructs described above, were detected with anti-tag antibody.

[2] = molecular target: T2, human CD3e/d complex on cells transiently transfected with pOPT-CD3e/d-hum-mix (human, UniProt P07766 23-126; P04234 22-171); experiment: CELISA, hybridoma supernatant
T2 construct: Tagged screening constructs
T2 sequence (P07766 23-126 limits assumed, chain 1 of 2): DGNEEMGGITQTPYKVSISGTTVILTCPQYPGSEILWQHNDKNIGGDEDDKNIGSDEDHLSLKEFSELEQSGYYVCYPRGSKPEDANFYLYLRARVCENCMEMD
T2 sequence (P04234 22-171 limits assumed, chain 2 of 2): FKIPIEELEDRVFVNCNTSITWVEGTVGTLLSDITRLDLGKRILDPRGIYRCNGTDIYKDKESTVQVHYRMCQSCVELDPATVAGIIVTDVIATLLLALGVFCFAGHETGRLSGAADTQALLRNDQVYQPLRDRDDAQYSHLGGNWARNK
Protocol: as §1

[3] = molecular target: T3, human CD3 on human T cells (human, UniProt P07766 23-207); experiment: flow cytometry, Jurkat CD3+ (E6-1)
T3 construct: Native TCR-CD3 complex on cells; also called primary human T cells; human pan T cells
T3 sequence (P07766 23-207 limits assumed): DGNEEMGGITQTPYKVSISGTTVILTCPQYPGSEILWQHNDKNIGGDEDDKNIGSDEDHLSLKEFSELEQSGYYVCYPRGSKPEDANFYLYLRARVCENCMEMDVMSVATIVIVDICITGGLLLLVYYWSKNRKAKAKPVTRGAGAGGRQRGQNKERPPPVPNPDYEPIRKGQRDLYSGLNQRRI

[4] = molecular target: T4, Human CD33 ECD-HSA (human); experiment: ProteOn SPR, mAb captured on anti-human Fc, antigen as analyte
T4 construct: CD33 ECD fused at the C-terminus to monomeric HSA (C58S) and a six-histidine tag; also called C33W2; huCD33 ECD-HSA
Protocol: (§2) The panel of mAbs was then further characterized for full affinity analysis as well as epitope binning. The binding of anti-CD33 mAbs to recombinant human CD33 ECD-HSA (C33W2) and cyno CD33 ECD-HSA (C33W1) was measured by ProteOn SPR (Bio-Rad). […] Different mAbs were captured on the anti-human Fc IgG surface at 0.25 or 0.5 μg/ml (160-300 RU) in vertical ligand orientation, with the 6th ligand channel as no ligand surface control. Human and cyno CD33-HSA proteins at 0.3 μM concentration in 3-fold dilution series of 5 concentrations flew in as analyte to bind to captured mAbs in the horizontal orientation. A buffer sample was also injected in the 6th channel to monitor the dissociation of captured mAb and baseline stability. […] The raw biding data were processed by double referencing after subtracting the response data from: 1) the inter-spot to correct for the non-specific interactions between the Ag and the empty chip surface; 2) the buffer channel to correct for baseline drifting due to the dissociation of captured mAb surface over time. The processed data at all antigen concentrations for each mAb were globally fit to a 1:1 simple Langmuir binding model to extract estimates of the kinetic (kₒₙ, koff) and affinity (Kd) constants.

[5] = molecular target: T5, Cyno CD33 ECD-HSA (cynomolgus monkey); experiment: as above
T5 construct: Cyno CD33 ECD fused to HSA and a six-histidine tag; also called C33W1
Protocol: as §2

[6] = molecular target: T6, Human CD33 full length (human, UniProt P20138 18-364); experiment: flow cytometry on HEK293F cells expressing human CD33
T6 construct: also called huCD33
T6 sequence (P20138 18-364 limits assumed): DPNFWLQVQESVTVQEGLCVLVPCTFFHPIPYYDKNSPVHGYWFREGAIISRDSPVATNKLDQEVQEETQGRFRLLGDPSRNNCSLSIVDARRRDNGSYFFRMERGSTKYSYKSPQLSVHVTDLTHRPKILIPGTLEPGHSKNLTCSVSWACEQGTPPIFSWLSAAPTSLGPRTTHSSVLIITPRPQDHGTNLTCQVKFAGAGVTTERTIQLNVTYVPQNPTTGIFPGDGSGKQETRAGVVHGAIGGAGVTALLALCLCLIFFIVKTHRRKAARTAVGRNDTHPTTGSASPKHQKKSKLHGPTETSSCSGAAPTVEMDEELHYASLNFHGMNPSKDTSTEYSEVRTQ
Protocol: (§3) The purified antibodies were assessed for binding to stably transfected HEK293F cells expressing human CD33 or cyno CD33 (generation described above) along with the parental HEK293F as negative control. Cells were harvested from tissue culture flasks using non-enzymatic dissociation buffer (Thermo Scientific). The flasks were rinsed twice with PBS and dissociation buffer was added to the flask, and the flask was incubated for 10 minutes at 37° C. until the cells became non-adherent. The cells were centrifuged at 300 g for 5 minutes and resuspended at 1.0×10⁶ cells/ml in staining buffer (Becton Dickinson; Franklin Lakes, NJ). 50,000 cells/well of each cell type was plated in 50 μl of staining buffer in round bottom plates (Becton Dickinson). […] 100 μl staining buffer was added to all wells of each plate, the plates were spun at 300 g for 5 min, the buffer was removed, 200 μl staining buffer was added to all wells of each plate, the plates were spun at 300 g for 5 min, and the buffer was removed. 50 μl of 2 μg/ml of Goat-anti-human Fc AF647 secondary antibody (Jackson Immunoresearch; West Grove, PA) was added to all wells of the plates, and the plates were incubated for 30 min at 4° C. 100 μl staining buffer was added to all wells of the plates, the plates were spun at 300 g for 5 min, and the buffer was removed. 200 μl running buffer (running buffer is Staining buffer, 1 mM EDTA, 0.1% Pluronic Acid) was added to all wells of the plates, the plates were spun at 300 g for 5 min, and the buffer was removed. 30 μl running buffer containing Sytox Green live/dead dye (ThermoFisher) was added to all wells with cells and the plates were read on an iQue IntelliCyt flow cytometer. Cells were gated on forward vs. side scatter to eliminate debris, then on singlets and then on live cells which excluded the Sytox stain. Antibody binding was assessed by the mean fluorescence intensity in the AF647 channel.
(§4) The OmniMouse panel (8 mAbs total) was generated separately and characterized further for binding to cells.

[7] = molecular target: T7, Cyno CD33 full length (cynomolgus monkey); experiment: flow cytometry on HEK293F cells expressing cyno CD33
T7 construct: also called cyCD33
Protocol: as §3, §4

T1 sequence (Q95LI5 22-198 limits assumed, chain 1 of 2): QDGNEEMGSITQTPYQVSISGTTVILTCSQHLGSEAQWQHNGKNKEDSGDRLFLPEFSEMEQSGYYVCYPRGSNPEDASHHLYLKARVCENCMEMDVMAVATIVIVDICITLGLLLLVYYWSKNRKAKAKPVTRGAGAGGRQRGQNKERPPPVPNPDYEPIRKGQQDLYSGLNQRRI
T1 sequence (Q95LI8 22-171 limits assumed, chain 2 of 2): as the sequence (P04234 22-171 limits assumed, chain 2 of 2) above, with I5V, N15K, I20V, S32T, D33N, I34N, T64A, S74N, V83L, H141R counted along it

| Binder | % positive [1] | Rfu [1] | % positive [2] | Rfu [2] | % positive [3] | geomean [3] | Kd [4] | koff [4] | kon [4] | Kd [5] | koff [5] | kon [5] | MFI at 0 nM (background) [6] | MFI at 0.6 nM [6] | MFI at 6 nM [6] | MFI at 60 nM [6] | MFI at 0 nM (background) [7] | MFI at 0.6 nM [7] | MFI at 6 nM [7] | MFI at 60 nM [7] |
| --- | --- | --- | --- | --- | --- | --- | --- | --- | --- | --- | --- | --- | --- | --- | --- | --- | --- | --- | --- | --- |
| BLW-2E6 (antibody, V domains shown, OmniRat hybridoma supernatant: human V regions on rat constant regions; also called V regions cloned as CD3B312 (CD3H219/CD3L124)) VH: QVQLQQSGPRLVRPSQTLSLTCAISGDSVFNNNAAWSWIRQSPSRGLEWLGRTYYRSKWLYDYAVSVKSRITVNPDTSRNQFTLQLNSVTPEDTALYYCARGYSSSFDYWGQGTLVTVSS VL: QSALTQPASVSGSPGQSITISCTGTSSNIGTYKFVSWYQQHPDKAPKVLLYEVSKRPSGVSSRFSGSKSGNTASLTISGLQAEDQADYHCCSYAGSGTLLFGGGTKLTVL | 25% | 121 rfu | 34% | 231 rfu | 3% | 7500 geometric mean fluorescence | – | – | – | – | – | – | – | – | – | – | – | – | – | – |
| C33B913 (antibody, V domains shown, OMNIMouse-derived anti-CD33 mAb; same V regions as C33B905; also called C33H253/C33L119; C33F551) VH: EVQLLESGGGLVQPGGSLKLSCTASGFTFRSYAMSWVRQAPGKGLEWVSAINGYGDGRYYADSVKGRFTISRDNSKNTLYLQMNSLRAEDTAVYSCAKDQGFGELFFDYWGQGTLVTVSS VL: not shown | – | – | – | – | – | – | 0.969 nM | 0.00064 s⁻¹ | 660000 M⁻¹ s⁻¹ | 0.12 nM | 0.000308 s⁻¹ | 2.56e+06 M⁻¹ s⁻¹ | 128 MFI | 205000 MFI | 409000 MFI | 519000 MFI | 106 MFI | 35200 MFI | 36900 MFI | 40700 MFI |
| C33B915 (antibody, V domains shown, OMNIMouse-derived anti-CD33 mAb; same V regions as C33B907; also called C33H255/C33L121; C33F553) VH: EVQLVESGGGLVQPGRSLRLSCAASGFTFDDYAMHWVRQVPGEGLEWVSGISWNGGDMVYADSVKGRFTISRDNAKNSLYLQMNSLRPEDTALYYCVKDMPYFDFLTGSDYYYYGMDVWGQGTTVTVSS VL: SYELTQPPSVSVSPGQTASITCSGDNLGNEHVCWYHQKPGQSPVLVIYQNNKRPSGIPERFSGSNSGNTATLSISGTQATDEADYYCQAWDSTTAVFGGGTKLTVL | – | – | – | – | – | – | 4.53 nM | 0.000989 s⁻¹ | 218000 M⁻¹ s⁻¹ | 0.0234 nM | 8.93e-05 s⁻¹ | 3.81e+06 M⁻¹ s⁻¹ | 112 MFI | 138000 MFI | 363000 MFI | 390000 MFI | 114 MFI | 36200 MFI | 35700 MFI | 37500 MFI |

Results, then the binder that gave them:

| % positive [1] | Rfu [1] | % positive [2] | Rfu [2] | % positive [3] | geomean [3] | Kd [4] | koff [4] | kon [4] | Kd [5] | koff [5] | kon [5] | MFI at 0 nM (background) [6] | MFI at 0.6 nM [6] | MFI at 6 nM [6] | MFI at 60 nM [6] | MFI at 0 nM (background) [7] | MFI at 0.6 nM [7] | MFI at 6 nM [7] | MFI at 60 nM [7] | Binder |
| --- | --- | --- | --- | --- | --- | --- | --- | --- | --- | --- | --- | --- | --- | --- | --- | --- | --- | --- | --- | --- |
| 47% | 230 rfu | 101% | 689 rfu | 53% | 148000 geometric mean fluorescence | – | – | – | – | – | – | – | – | – | – | – | – | – | – | BLX-1F8 (antibody, V domains shown, OmniRat hybridoma supernatant: human V regions on rat constant regions; also called V regions cloned as CD3B314 (CD3H220/CD3L126)) VH: QVQLQQSGPGLVKPSQTLSLTCAISGDSVFNNNAAWSWIRQSPSRGLEWLGRTYYRSKWLYDYAVSVKSRITVNPDTSRNQFTLQLKSVTPEDTALYYCSRGYSSSFDYWGQGTLVTVSS VL: QSALTQPASVSGSPGQSITISCTGTSSDIGTYKFVSWYQQHPDKAPKVLLYEVSKRPSGVSSRFSGSKSDNTASLTISGLQAEDQADYHCCSYAGSGTLLFGGGTKLTVL |
| 47% | 230 rfu | 101% | 689 rfu | 53% | 148000 geometric mean fluorescence | – | – | – | – | – | – | – | – | – | – | – | – | – | – | BLW-2B4 (antibody, V domains shown, OmniRat hybridoma supernatant: human V regions on rat constant regions; also called V regions cloned as CD3B311 (CD3H218/CD3L123)) VH: QVQLQQSGPGLVKPSQTLSLTCAISGDSVFNNNAAWSWIRQSPSRGLEWLGRTYYRSKWLYDYAVSVKSRITVNPDTSRNQFTLQLNSVTPEDTALYYCVRGYSSSFDYWGQGTLVTVSS VL: QSALTQPASVSGSPGQSITISCTGTSRDIGTYKFVSWYQQHPDKAPKVLLYEVNKRPSGVSSRFSGSKSGNTASLTISGLQAEDQADYHCCSYAGSGTLLFGGGTKLTVL |
